Assay: label from the status in PepcDB records
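Further: failed if final PepcDB status was selected cloned or expressed and not failed if soluble or beyond.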

**Q.** With “MAFWAGGSPSVVDYFPSEDFYRCGYCKNESGSRSNGMWAHSMTVQDYQDLIDRGWRRSGKYVYKPVMNQTCCPQYTIRCRPLQFQPSKSHKKVLKKMLKFLAKGEVPKGSCEDEPMDSTMDDAVAGDFALINKLDIQCDLKTLSDDIKESLESEGKNSKKEEPQELLQSQDFVGEKLGSGEPSHSVKVHTVPKPGKGADLSKPPCRKAKEIRKERKRLKLMQQNPAGELEGFQAQGHPPSLFPPKAKSNQPKSLEDLIFESLPENASHKLEVRLVPVSFEDPEFKSSFSQSFSLYVKYQVAIHQDPPDECGKTEFTRFLCSSPLEAETPPNGPDCGYGSFHQQYWLDGKIIAVGVIDILPNCVSSVYLYYDPDYSFLSLGVYSALREIAFTRQLHEKTSQLSYYYMGFYIHSCPKMKYKGQYRPSDLLCPETYVWVPIEQCLPSLENSKYCRFNQDPEAVDEDRSTEPDRLQVFHKRAIMPYGVYKKQQKDPSEEAAVLQYASLVGQKCSERMLLFRN” as the sequence, how does the protein production read?
**A.** failed

**Q.** With “MAGAGGGNDIQWCFSQVKGAVDDDVAEADIISTVEFNHSGELLATGDKGGRVVIFQQEQENKIQSHSRGEYNVYSTFQSHEPEFDYLKSLEIEEKINKIRWLPQKNAAQFLLSTNDKTIKLWKISERDKRPEGYNLKEEDGRYRDPTTVTTLRVPVFRPMDLMVEASPRRIFANAHTYHINSISINSDYETYLSADDLRINLWHLEITDRSFNIVDIKPANMEELTEVITAAEFHPNSCNTFVYSSSKGTIRLCDMRASALCDRHSKLFEEPEDPSNRSFFSEIISSISDVKFSHSGRYMMTRDYLSVKIWDLNMENRPVETYQVHEYLRSKLCSLYENDCIFDKFECCWNGSDSVVMTGSYNNFFRMFDRNTKRDITLEASRENNKPRTVLKPRKVCASGKRKKDEISVDSLDFNKKILHTAWHPKENIIAVATTNNLYIFQDKVN” as the sequence, how does the protein production read?
**A.** failed

**Q.** For “MAGAITLACTIRFEANAEHVYLSSGTKQTVYHYPFPMSTIHITLNGERKEVPAGSTVSELLVIADADRQPVAVVVNEHIVRPDQRDSYILQERDQVEILVFAGGGLEHHHHHH”, which protein production is on record?
**A.** not failed

**Q.** For “MAGASHDIHPPKVEYFDLRDHTNTDPKGFVRHVDHYRVEPWGLYMARTSDHPQFHYLESWLLPDLGLRASIFHYHPYHQRDQDHYVDIGTFTRGDDVWKSEDHYLDLVVRTGRDTELLDVDELMEAHTTGLLDTATAEQAILTATTAIDGIAAHGHDLGRWLASIGMPIDWR”, which protein production is on record?
**A.** not failed

**Q.** For “MAGATDRDGWKVERGDDSWTVPGYIDLKKLGKGGAGRVMIARHAGTGRNVAIKYLNEELCSKVEFRTALRAEARLLGGLTSPHVTRLYEYVEAEQGAAIVMELVYGAALRTLLKKEGSTDIEAALVVLKGSLLGLAAAHGVGVVHRDYKPENVLVNWDGQTKLVDFGISARTGDRHNLRGTCAYMPPEQWKLEAATPAGDVYAATATLYECVTGVRPFEGPEPWDFQRQHVDEPVPMDRVPEEVRALVRHGMAKDPALRPPSALDFLRELEWAAENAYGPDWEERGQSRLAAVAAALVPLAISRLDARLVGSSAELARTVLTARRRSRLRRRGDVLTGAAAVAVVGLLSLMPSGWAAGGAEGHAGAHAQAVTRLDARKDTGSATEARGTEHGDTAESDPDSDRAGTSGAQGGGGHGDGGAGLAPADGGTRSDSGSGGGAGDSGTDSPDDGNNTVERNGGTENGGTENGGTENGGTENGGTENGGTENGGTENGGTENGGTENGGTENGGTENGGTENGGTENGGTENGGTENGGTENGGTENGGTENGGTENGGTENGGTENGGTENGGTENGGTENGGTENGGTENGGTDNGGTDNGGTDNGGTDARHGHSNAGTSDGDPASTGGTDSGNSAGGTGTGTGSGSTSAVTPRQGDPAAVEGEPG”, which protein production is on record?
**A.** failed

**Q.** With “MAGEDSFERIALEWHARHMANKSESHATKTLERLRKDVFPWIGNRPVREITAPELLSVLRRIESRGAIELCHVTKRICGQVMRYAIATGRAERDPAADLKGALQPVKARHLEHHHHHH” as the sequence, how does the protein production read?
**A.** failed

**Q.** For “MAGENFATPFHGHVGRGAFSDVYEPAEDTFLLLDALEAAAAELAGVEICLEVGSGSGVVSAFLASMIGPQALYMCTDINPEAAACTLETARCNKVHIQPVITDLVKGLLPRLTEKVDLLVFNPPYVVTPPQEVGSHGIEAAWAGGKNGREVMDRFFPLVPDLLSPKGLFYLVTIKENNPEEILKIMKTKGLQGTTALSRQAGQETLSVLKFTKS”, which protein production is on record?
**A.** failed

**Q.** For “MAGGTKRLPRAVREQQMLDAAVDVFSDRGFHETSMDAIAAKAEISKPMLYLYYGSKDELFAACIQREGLRFVEALAPAGDPGLSPREQLRRALEGFLGFVGKHRKSWMVLYRQAMGQQAFVGSVQSSRDRLIELTAHLLESSTKDPEPGQDFELIAIALVGAGEAVADRVAGGEIEVDAAADLLESLAWRGLAGKKKPE”, which protein production is on record?
**A.** not failed

**Q.** For “MAGGYGVRSPGPCVQCLARPMTTPFWPGRERCASLASRDAFAARLFKRQKMESFLVSTGIVALAEMGDKTQLLSLVLAARYRKPIPIILGILIATLVNHGFAGALGGWITGMVGVDLLRWILGLGFIAMAGWMLIPDKLDDAEEAKPVKGALGILGTTIIAFFFAEMGDKTQIATVALAARFHGEVIAVVAGTTFGMMLANAPAVLLGDRFANKMPIALVHKIAAAIFLVLGLLALFNVGG”, which protein production is on record?
**A.** failed

**Q.** With “MAGLVKKTTGLVGLAVCDTPHERLTILYTKILDLLKHFPKHAAYRKYTEQITSEKLELVKLEPDVKKLENLLQGGEVEEVILQAEKELSLARKMLQWKPWEPLVEEPPANQWKWPI” as the sequence, how does the protein production read?
**A.** failed

**Q.** With “MAGRFAPRPPRAVVRDGIPRQALAPGRVRVWAPDGPLDVGLVLGPLRRGPGDPTFRTMPDGSVWRTGRTPAGPGTLRVTARGGEVRGEAWGPGAEWLLERLPLMLGAEDDPSAFVPRHRLLAVTAHRRPGLRLTRTGLVLESLIPSILEQKVTTLEAYQAWRLLVRKFGEPAPGPAPGRMCVMPAARTWALIPSWEWHLAGVDDKRASTVLRAVRVAARLEEAAGMEPAAARERLELVPGVGPWTSAETVQRSHGAPDAVTVGDLHLPGIVGFALGGDRYADDAEMLRLLEPYAGQRHRAARLVLLSGRVPERRAPRMAPRGIERL” as the sequence, how does the protein production read?
**A.** failed

**Q.** Which protein production does the source give for “MAGTSQMNNGRSWMQGEKMIPNKDDAEEFANKAKNAVNSGDYDGAIADIERAIKASPRSVPYHLIKADALYRKGDYEDALDVLNFAETIEKNNPELLSLKSICYGSLGKFNESKIEATKAIKADPNYPFAYYNRAKAEQYLEEYDIAKKDLQKYLEMQPNDPDAYMDLADMEYHEGDYKKALQHVNTAIKKDKESTDAHDLKLNILLAQKDIENYLKELLEAFKDTEDFKYIGTLVETLKSVGSFDTAEDILKEFIKIYKDEPFLYDALARVYYDQDRKDDAYRTYEELLKSNDDREAKIYWFDFLLDDGSYDRLIGEIEKSGLKDDEVLEIKYIAEDQKGDHKAALSTADDLLKLDRTPYNTSLYGSQLRKLGRLDESIKALSEFDDDPDVAYELFLAYMDRGDVHSASKYLKTSIENSEDDDDVISNVLEGVSKMMDHSDFQSVNDFLDGLGKENDNLYILTEAMHAINSGVFEGYEKGKEKFLGLDEHKEEVCEFANNIVELTEGKAKAFLEKFIEDNCGENEMEE” here?
**A.** failed

**Q.** With “MAGWGIRSITGTSKLRAAMLLVVVGLLSVSGWLQRLDWLVYDEIISRQSFQPDSDIVIVAIDEESLRTIGKWPWSRELHAGLIDRLSQIGSNVVALDLLLSEPDVDHPEADKRLKTAIFTHGNVVLPVAPAQNASGDRFSLIQPLASLQRRATLGHVDVELDRDGVARRTFLYAGIDIPAFPALGLALADKGSLPNRMRLLSRMPEADKTIVNTGNSWVRSREIMVPFAGPPGTYPRISYARLLNDDDLLDDLRGKIIIVGMTATGLQQGFLTPVSLTRHNYMSGVEWHASVVDMLRNGRSIYPVPEMVAIAVTVLWVLAVLLVVNIVPGRFRSLVLLVSLAAGIGLVTMLLGVFHIWLPPGVALIGTLAVYPLQSWQRINEFIQSQFITGSCLQAVFDSVQEGVITVDAKGNILYLNQESERILGARSEQLIGKPLEQLIGVCLIPDKQDRDVNGSGSADTRPDSRIQHCVLTLPSGDRRTIRVTHRALYDRWRIPAGAVVTISDISDTLEMKQQIARQANYDVLTMLPSRNFLLSRFGELAVSARQHGAALIVCLVSVDNFSKINDAFGYHSGDALLKMIADRLLKLVCSEDLIARWSGDEFMLVVDRPVREGQELQFARKVQETINRRFEINGQEVFISASIGIRISSQPDQVDEKSEIFLDEAVSAMRRVKRQGGNGFQFYASGQMNAWTREQLEFERDFRLAIENQDKALHVLFQPIVDVQQKRVVHNEVLVRWAHPTRGLLSPGDFIPLAERVGLIGQLGDLVLWISCRIAADLAKVGQAVDISVNVASRQLLHPDFLQKVAGVLERTGLPAGRLMLEITESAVISDLPRAAEALVRLKALGVAIALDDFGTGYSSLSLLRELPLDILKIDKSFIQGIEQDHPGDEKFDFAIARAIIALGDNLGLGVIAEGVETEKHMEFLRKHHCYLQQGYYFSRPLSTTQLMQFMGRPDSIRV” as the sequence, how does the protein production read?
**A.** failed

**Q.** With “MAHHHHHHMAITLPKLKYALNALSPHISEETLSFHYNKHHAGYVNKLNGLIKDTPLANKSLTDILKESTGAIFNNAAQIWNHSFYWDSMGPNCGGEPHGEIKEKIQEDFGSFNNFKDQFSNVLCGHFGSGWGWLALNKNNKLVILQTHDAGNPIKENTGIPILTCDVWEHAYYIDYRNDRLSYVKAWWNLVNWNFANENLKNALNK” as the sequence, how does the protein production read?
**A.** not failed

**Q.** With “MAHIFVYGTLKRGQPNHKVMLDHSHGLAAFRGRGCTVESFPLVIAGEHNIPWLLYLPGKGHCVTGEIYEVDEQMLRFLDDFEDCPSMYQRTALQVQVLEWEGDGDPGDSVQCFVYTTATYAPEWLFLPYHESYDSEGPHGLRYNPRENR” as the sequence, how does the protein production read?
**A.** not failed

**Q.** For “MAIEPDLGLDSTEPKLFSARLKPHRALSHNGFLILIGLVGTASFAAGLAFWLIGAWPVFGFFGLDVLALAFAFKVSFARARASEEISMTCSELRVRRTSARGEVAEWVLNPLWVRLEKIVHHDAGIERLYLVSSGRRLAIANFLGAEEKANFAKALMAALDAARRGPLYPA”, which protein production is on record?
**A.** failed

**Q.** For “MAILSYISATSTTPPIPQDQSPNSRLPTKIILPNKKPEKWSTGVAPGEYGGPPTTTKLRKYWGGEKEDPITSTDLIWNRDFMDQMKKLFDDPNDSSLDPSPSKEKSSGFLSFSRVMSLDSMDVDLSKELASSSKSVVKNRLDTSKSEAKKQMSKAIVSPKWKLAPTRREQEKWDRATKAATGGSDVMFRELRRPRGDPEVQAAKDREQYFKLKNKIQVLTLGIGGVGLVSAYISYTPEIALSFGAGLLGSLAYMRMLGNSVDAMADGARGVAKGAANQPRLLVPVVLVMIFNRWNAILVPEYGFMHLELIPMLVGFFTYKIATFFQAIEEAISITTQKPESISPDTQASD”, which protein production is on record?
**A.** not failed

**Q.** For “MAILVDVRAAREIQDGEAGCRWERPLALGQGAFYAATGAWPLVHMPSFVAVTGPKLEPWLVRTVGVLIGAIGGTLLSAGARRRITPEVRWLALASAAGIAAVELWYAGRRRRIAPVYLLDGAGELALAAAWAALGAGRRLRGGVGTVAGGRGRHGREEDAR”, which protein production is on record?
**A.** failed

**Q.** Which protein production does the source give for “MAIPHYRLASFSSIIDDEIDKSVLVNLVGAIYDVGEFINTRPKQNIVDDLTLTFKISDNENRVLECLATKKEALDFDHNYRQYGGGVIVAVLGWWKIERYFDGTKNIRVCTACPISTVFP” here?
**A.** failed

**Q.** For “MAISKALIASLLISLLVLQLVQADVENSQKKNGYAKKIGFRGGRGCVTERAGLAATGATVCLRVRTETTTSASATLASPPTVDAASAHKKKQSS”, which protein production is on record?
**A.** failed
